Experimental data published in publication PMC9482650, “Quantitative fragmentomics allow affinity mapping of interactomes” (Nature Communications, 2022).

Legend:
Test in all cases: holdup assay
Parameters in all cases: key: below the threshold = too weak to quantify, mostly under pKd 3.1 to 4
Conditions in all cases: plain residues with an end cap or a label only (N-terminal biotin on a linker: ttds)
Inadl_2, Q8NI35 = biological target: Inadl_2, Q8NI35
SNX27, Q96L92 = biological target: SNX27, Q96L92
LNX2_2, Q8N448 = biological target: T1, LNX2_2, Q8N448
T1 sequence (Q8N448 334-432, limits assumed, looked up): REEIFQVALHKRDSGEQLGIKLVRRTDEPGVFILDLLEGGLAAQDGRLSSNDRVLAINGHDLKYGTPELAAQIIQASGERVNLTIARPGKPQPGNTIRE

PCLO, Q9Y6V0 = biological target: T2, PCLO, Q9Y6V0
T2 sequence (Q9Y6V0 4491-4600, limits assumed, looked up): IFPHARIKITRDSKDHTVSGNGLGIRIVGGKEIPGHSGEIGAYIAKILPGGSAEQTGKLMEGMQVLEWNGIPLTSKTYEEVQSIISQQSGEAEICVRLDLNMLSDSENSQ

LDB3, O75112 = biological target: LDB3, O75112
Chain of LDB3, O75112 (O75112 1-94): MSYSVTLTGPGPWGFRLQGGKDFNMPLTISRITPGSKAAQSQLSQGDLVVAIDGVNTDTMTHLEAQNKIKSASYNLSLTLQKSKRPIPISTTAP

PICK1, Q9NRD5 = biological target: PICK1, Q9NRD5
Chain of PICK1, Q9NRD5 (Q9NRD5 17-115): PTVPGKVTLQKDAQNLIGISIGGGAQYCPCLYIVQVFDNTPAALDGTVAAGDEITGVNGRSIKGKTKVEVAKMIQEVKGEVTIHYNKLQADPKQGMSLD

PDZRN3_1, Q9UPQ7 = biological target: T3, PDZRN3_1, Q9UPQ7
T3 sequence (Q9UPQ7 244-349, limits assumed, looked up): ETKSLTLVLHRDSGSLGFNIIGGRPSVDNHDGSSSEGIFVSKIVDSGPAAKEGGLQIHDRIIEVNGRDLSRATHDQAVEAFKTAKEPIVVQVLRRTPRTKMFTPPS

IL16_1, Q14005 = biological target: IL16_1, Q14005
Chain of IL16_1, Q14005 (Q14005 210-306): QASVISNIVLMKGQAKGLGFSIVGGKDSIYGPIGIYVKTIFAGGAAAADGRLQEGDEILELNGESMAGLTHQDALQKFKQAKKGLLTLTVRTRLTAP

DLG3_2, Q92796 = biological target: T4, DLG3_2, Q92796
T4 sequence (Q92796 221-321, limits assumed, looked up): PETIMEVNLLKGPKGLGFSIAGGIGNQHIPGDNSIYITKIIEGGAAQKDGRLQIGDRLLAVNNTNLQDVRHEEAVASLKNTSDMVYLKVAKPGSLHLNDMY

RHPN1, Q8TCX5 = biological target: T5, RHPN1, Q8TCX5
T5 sequence (Q8TCX5 508-602, limits assumed, looked up): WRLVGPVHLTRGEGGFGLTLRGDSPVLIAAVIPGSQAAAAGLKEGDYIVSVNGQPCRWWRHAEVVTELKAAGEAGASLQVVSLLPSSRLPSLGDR

MPP6, Q9NZW5 = biological target: T6, MPP6, Q9NZW5
T6 sequence (Q9NZW5 125-219, limits assumed, looked up): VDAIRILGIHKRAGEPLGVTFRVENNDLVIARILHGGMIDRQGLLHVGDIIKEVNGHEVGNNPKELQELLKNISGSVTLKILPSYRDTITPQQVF

TJP1_2, Q07157 = biological target: TJP1_2, Q07157
Chain of TJP1_2, Q07157 (Q07157 181-274): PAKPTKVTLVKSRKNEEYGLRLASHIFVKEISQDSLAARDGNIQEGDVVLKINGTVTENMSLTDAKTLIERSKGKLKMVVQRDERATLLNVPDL

IL16_4, Q14005 = biological target: IL16_4, Q14005
Chain of IL16_4, Q14005 (Q14005 1229-1329): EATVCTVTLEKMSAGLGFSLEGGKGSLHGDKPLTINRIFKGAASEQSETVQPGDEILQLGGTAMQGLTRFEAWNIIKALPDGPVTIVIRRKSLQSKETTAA

ARHGEF11, O15085 = biological target: T7, ARHGEF11, O15085
T7 sequence (O15085 42-136, limits assumed, looked up): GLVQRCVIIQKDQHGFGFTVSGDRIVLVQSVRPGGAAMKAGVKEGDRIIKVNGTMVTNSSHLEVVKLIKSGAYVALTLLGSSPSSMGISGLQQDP

MAST1, Q9Y2H9 = biological target: MAST1, Q9Y2H9
Chain of MAST1, Q9Y2H9 (Q9Y2H9 962-1065): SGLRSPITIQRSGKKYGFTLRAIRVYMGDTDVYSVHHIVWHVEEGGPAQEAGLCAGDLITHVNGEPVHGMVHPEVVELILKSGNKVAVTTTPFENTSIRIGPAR

NHERF2_2, Q15599 = biological target: NHERF2_2, Q15599
Chain of NHERF2_2, Q15599 (Q15599 142-238): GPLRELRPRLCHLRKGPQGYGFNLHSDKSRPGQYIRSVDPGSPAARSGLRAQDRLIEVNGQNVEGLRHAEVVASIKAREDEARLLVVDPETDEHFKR

NHERF4_4, Q86UT5 = biological target: NHERF4_4, Q86UT5
Chain of NHERF4_4, Q86UT5 (Q86UT5 464-550): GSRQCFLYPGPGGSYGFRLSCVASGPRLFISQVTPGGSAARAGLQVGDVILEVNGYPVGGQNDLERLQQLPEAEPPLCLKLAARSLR

SHANK1, Q9Y566 = biological target: T8, SHANK1, Q9Y566
T8 sequence (Q9Y566 658-767, limits assumed, looked up): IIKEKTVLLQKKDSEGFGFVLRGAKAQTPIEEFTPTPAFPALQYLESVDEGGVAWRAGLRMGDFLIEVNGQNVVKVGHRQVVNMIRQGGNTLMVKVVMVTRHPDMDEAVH

Inadl_8, Q8NI35 = biological target: Inadl_8, Q8NI35
Chain of Inadl_8, Q8NI35 (Q8NI35 1425-1530): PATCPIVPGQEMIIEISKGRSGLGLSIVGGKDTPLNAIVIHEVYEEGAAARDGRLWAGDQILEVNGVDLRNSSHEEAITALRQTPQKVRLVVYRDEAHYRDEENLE

NHERF3_3, Q5T2W1 = biological target: T9, NHERF3_3, Q5T2W1
T9 sequence (Q5T2W1 238-333, limits assumed, looked up): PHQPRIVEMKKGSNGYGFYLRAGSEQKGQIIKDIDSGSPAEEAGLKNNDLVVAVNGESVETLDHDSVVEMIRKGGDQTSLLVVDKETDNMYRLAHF

PTPN3, P26045 = biological target: PTPN3, P26045
Chain of PTPN3, P26045 (P26045 505-587): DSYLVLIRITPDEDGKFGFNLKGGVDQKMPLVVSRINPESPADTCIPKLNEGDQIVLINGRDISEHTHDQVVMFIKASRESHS

MAST2, Q6P0Q8 = biological target: MAST2, Q6P0Q8
Chain of MAST2, Q6P0Q8 (Q6P0Q8 1099-1202): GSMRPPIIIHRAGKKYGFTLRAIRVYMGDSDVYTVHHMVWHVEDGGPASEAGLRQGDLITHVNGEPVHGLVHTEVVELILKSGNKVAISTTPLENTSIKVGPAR

GRIP2_5, Q9C0E4 = biological target: GRIP2_5, Q9C0E4
Chain of GRIP2_5, Q9C0E4 (Q9C0E4 544-642): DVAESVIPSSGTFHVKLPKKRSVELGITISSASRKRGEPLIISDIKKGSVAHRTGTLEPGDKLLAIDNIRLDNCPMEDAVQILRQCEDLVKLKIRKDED

ARHGAP21, Q5T5U3 = biological target: T10, ARHGAP21, Q5T5U3
T10 sequence (Q5T5U3 45-169, limits assumed, looked up): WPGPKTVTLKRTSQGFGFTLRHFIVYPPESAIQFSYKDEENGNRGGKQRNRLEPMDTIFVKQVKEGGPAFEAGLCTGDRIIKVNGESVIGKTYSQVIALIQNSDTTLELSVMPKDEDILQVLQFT

SIPA1L2, Q9P2F8 = biological target: T11, SIPA1L2, Q9P2F8
T11 sequence (Q9P2F8 945-1036, limits assumed, looked up): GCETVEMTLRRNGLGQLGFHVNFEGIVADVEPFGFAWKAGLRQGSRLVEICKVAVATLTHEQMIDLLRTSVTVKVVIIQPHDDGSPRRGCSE

GORASP1, Q9BQQ3 = biological target: GORASP1, Q9BQQ3
Chain of GORASP1, Q9BQQ3 (Q9BQQ3 1-208): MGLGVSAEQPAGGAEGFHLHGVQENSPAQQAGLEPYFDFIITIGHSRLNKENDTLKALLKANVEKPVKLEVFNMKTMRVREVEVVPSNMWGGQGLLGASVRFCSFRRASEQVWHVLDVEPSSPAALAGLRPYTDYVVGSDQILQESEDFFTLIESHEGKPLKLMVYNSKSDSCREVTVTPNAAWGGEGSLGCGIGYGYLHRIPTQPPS

DLG5_1, Q8TDM6 = biological target: DLG5_1, Q8TDM6
Chain of DLG5_1, Q8TDM6 (Q8TDM6 617-713): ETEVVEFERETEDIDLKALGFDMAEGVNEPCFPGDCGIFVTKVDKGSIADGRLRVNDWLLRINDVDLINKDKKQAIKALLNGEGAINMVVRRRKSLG

Chain of Inadl_2, Q8NI35 (Q8NI35 238-335): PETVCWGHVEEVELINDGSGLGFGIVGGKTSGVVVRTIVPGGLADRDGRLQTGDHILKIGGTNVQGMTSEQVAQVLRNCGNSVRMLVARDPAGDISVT

Binder	pKd (Inadl_2, Q8NI35)	pKd (SNX27, Q96L92)	pKd (LNX2_2, Q8N448)	pKd (PCLO, Q9Y6V0)	pKd (LDB3, O75112)	pKd (PICK1, Q9NRD5)	pKd (PDZRN3_1, Q9UPQ7)	pKd (IL16_1, Q14005)	pKd (DLG3_2, Q92796)	pKd (RHPN1, Q8TCX5)	pKd (MPP6, Q9NZW5)	pKd (TJP1_2, Q07157)	pKd (IL16_4, Q14005)	pKd (ARHGEF11, O15085)	pKd (MAST1, Q9Y2H9)	pKd (NHERF2_2, Q15599)	pKd (NHERF4_4, Q86UT5)	pKd (SHANK1, Q9Y566)	pKd (Inadl_8, Q8NI35)	pKd (NHERF3_3, Q5T2W1)	also measured
RLPKIKETTV [FRMPD4, Q14CM0]	below the threshold	5.73	4.47	below the threshold	below the threshold	below the threshold	4.47	4.07	5.6	4.19	below the threshold	below the threshold	below the threshold	3.71	4.26	below the threshold	below the threshold	below the threshold	3.98	below the threshold	pKd (PTPN3, P26045): 4.89; pKd (MAST2, Q6P0Q8): 4.93; pKd (GRIP2_5, Q9C0E4): below the threshold; pKd (ARHGAP21, Q5T5U3): below the threshold; pKd (SIPA1L2, Q9P2F8): below the threshold; pKd (GORASP1, Q9BQQ3): below the threshold; pKd (DLG5_1, Q8TDM6): below the threshold
RLQRRRETQV [HPV18-E6, P06463]	below the threshold	4.55	3.17	below the threshold	below the threshold	below the threshold	4.82	below the threshold	5.46	3.63	below the threshold	below the threshold	below the threshold	3.66	5.33	below the threshold	below the threshold	below the threshold	3.32	below the threshold	pKd (PTPN3, P26045): 4.49; pKd (MAST2, Q6P0Q8): 4.78; pKd (GRIP2_5, Q9C0E4): below the threshold; pKd (ARHGAP21, Q5T5U3): below the threshold; pKd (SIPA1L2, Q9P2F8): below the threshold; pKd (GORASP1, Q9BQQ3): below the threshold; pKd (DLG5_1, Q8TDM6): below the threshold
